Substitutions are numbered along the chain they refer to. Where two headings read alike, the source gives them in different places.

In data set [1] the target is T1, Cas13h1 (UniProt PDB:8WCE_1 1-1111).
T1 sequence: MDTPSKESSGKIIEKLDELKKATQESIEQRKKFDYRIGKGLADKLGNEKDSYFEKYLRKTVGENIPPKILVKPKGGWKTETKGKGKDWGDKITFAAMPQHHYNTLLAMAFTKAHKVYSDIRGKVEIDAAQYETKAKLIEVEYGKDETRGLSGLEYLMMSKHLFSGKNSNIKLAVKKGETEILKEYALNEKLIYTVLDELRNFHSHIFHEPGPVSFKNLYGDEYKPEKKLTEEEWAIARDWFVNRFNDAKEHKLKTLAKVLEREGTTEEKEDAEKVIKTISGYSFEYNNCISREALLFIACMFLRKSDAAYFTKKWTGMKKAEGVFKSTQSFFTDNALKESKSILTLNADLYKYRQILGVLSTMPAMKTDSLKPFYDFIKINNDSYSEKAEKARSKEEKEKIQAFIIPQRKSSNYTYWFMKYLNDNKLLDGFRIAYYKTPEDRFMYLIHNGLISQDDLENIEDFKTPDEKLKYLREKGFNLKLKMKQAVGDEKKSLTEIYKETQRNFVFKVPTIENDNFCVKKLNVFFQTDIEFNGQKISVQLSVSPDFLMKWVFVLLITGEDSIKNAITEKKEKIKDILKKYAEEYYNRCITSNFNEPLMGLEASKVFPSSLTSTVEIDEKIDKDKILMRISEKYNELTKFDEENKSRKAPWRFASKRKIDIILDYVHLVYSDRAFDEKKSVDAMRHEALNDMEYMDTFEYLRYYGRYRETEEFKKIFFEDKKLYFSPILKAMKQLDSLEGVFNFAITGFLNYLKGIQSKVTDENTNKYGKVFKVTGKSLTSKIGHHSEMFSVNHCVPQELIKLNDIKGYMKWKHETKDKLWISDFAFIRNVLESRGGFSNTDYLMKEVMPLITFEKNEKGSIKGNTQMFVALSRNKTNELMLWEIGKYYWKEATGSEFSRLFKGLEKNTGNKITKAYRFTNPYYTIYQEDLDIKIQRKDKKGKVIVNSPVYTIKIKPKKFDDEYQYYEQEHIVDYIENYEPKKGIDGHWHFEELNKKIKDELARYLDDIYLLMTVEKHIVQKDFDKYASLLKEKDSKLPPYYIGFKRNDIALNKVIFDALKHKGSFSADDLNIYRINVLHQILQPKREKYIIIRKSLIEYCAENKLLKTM
Briefly: cryo-EM.

Data set [2] deals with T2, Cas13h1 R200A (catalytically dead) (UniProt PDB:8WCE_1 1-1111, R200A).
T2 sequence: T1 sequence with R200A
Briefly: cryo-EM.

For data set [3], the target named is T2, Cas13h1 R200A (catalytically dead). Briefly: cryo-EM. This is another data set of the same source.
The target in data set [4] is T3, Cas13h1 Middle (UniProt PDB:8WCE_1 340-930).
T3 sequence: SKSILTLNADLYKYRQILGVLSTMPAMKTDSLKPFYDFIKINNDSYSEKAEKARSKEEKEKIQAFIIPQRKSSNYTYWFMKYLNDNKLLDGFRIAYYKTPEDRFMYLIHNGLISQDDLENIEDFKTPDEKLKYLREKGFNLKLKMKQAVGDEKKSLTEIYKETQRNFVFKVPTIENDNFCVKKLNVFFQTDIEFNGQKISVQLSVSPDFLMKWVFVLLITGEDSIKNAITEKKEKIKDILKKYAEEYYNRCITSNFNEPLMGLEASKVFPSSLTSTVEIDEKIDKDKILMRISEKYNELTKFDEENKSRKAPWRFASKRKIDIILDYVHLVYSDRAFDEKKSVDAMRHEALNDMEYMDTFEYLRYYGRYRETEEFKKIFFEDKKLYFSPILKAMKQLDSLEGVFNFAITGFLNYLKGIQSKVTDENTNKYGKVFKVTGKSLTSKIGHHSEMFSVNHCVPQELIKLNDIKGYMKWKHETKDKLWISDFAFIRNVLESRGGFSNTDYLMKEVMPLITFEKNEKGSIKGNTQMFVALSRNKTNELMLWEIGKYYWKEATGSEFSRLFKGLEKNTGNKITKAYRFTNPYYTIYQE
Briefly: size exclusion chromatography.

B1: crRNA (30-nt guide, 36-nt repeat) (structured_RNA)
RNA: UGCUUCACGUAGGCCUUGGAGCCGUACAUGGUUGUAACAAGCCUAAGUUUGAAAGGUAAAAACAAC
B1: the binding result in data set [1] is listed as “binds”.

B2: crRNA / target RNA3 (5'-U) (structured_RNA)
RNA 1: B1 RNA
RNA 2: UCAUGUACGGCUCCAAGGCCUACGUGAAGCA
Consider B2, for which the binding result in data set [2] is listed as “binds”.

B3: crRNA / target RNA1 (5'-G) (structured_RNA)
RNA 1: B1 RNA
RNA 2: B2 RNA 2 with U1G
Turning to B3, the binding result in data set [3] and in data set [4] was “binds” throughout.

The record behind these values is article PMC11229369.
